Reference: ChEMBL document CHEMBL3525955, “Glucuronidation of the red clover isoflavone irilone by liver microsomes from different species and human UDP-glucuronosyltransferases” (Drug Metab Dispos, 2011)

Columns and labels:
Format in all cases: ADME
[1] = target: T1, UDP-glucuronosyltransferase 1A10 (Homo sapiens, UniProt Q9HAW8); assay: Drug level assessed as human recombinant UGT1A10-mediated glucuronidation treated with irilone incubated for 5 mins prior to UDPGA addition measured after 90 mins by HPLC-DAD analysis; details: recombinant enzyme, 1.5 h
T1 sequence (Q9HAW8 whole entry): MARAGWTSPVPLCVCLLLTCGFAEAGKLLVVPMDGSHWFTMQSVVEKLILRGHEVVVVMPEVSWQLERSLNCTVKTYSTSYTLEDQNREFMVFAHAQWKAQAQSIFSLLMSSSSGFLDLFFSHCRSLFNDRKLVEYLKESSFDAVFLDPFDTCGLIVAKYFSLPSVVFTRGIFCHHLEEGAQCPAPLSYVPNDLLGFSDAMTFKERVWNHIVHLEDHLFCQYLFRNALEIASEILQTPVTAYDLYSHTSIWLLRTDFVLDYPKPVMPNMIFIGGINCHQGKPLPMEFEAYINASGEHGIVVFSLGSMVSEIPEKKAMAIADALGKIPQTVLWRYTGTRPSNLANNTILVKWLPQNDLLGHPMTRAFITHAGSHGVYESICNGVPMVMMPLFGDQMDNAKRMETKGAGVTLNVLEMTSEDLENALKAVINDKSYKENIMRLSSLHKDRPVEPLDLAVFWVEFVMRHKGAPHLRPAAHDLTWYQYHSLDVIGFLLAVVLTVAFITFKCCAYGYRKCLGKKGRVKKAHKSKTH

[2] = substrate: O=c1c(-c2ccc(O)cc2)coc2cc3c(c(O)c12)OCO3; assay: Activity of human recombinant UGT1A8 assessed as IRI-O-5-monoglucuronide formation incubated for 5 mins prior to UDPGA addition measured after 90 mins by Eadie-Hoftsee plot analysis
[3] = substrate: O=c1c(-c2ccc(O)cc2)coc2cc3c(c(O)c12)OCO3; assay: Activity of human recombinant UGT1A8 assessed as IRI-O-4'-monoglucuronide formation incubated for 5 mins prior to UDPGA addition measured after 90 mins by Eadie-Hoftsee plot analysis
[4] = substrate: O=c1c(-c2ccc(O)cc2)coc2cc3c(c(O)c12)OCO3; assay: Activity of human recombinant UGT1A10 assessed as IRI-O-4'-monoglucuronide formation incubated for 5 mins prior to UDPGA addition measured after 90 mins by Eadie-Hoftsee plot analysis
[5] = substrate: O=c1c(-c2ccc(O)cc2)coc2cc3c(c(O)c12)OCO3; assay: Activity of human recombinant UGT1A7 assessed as IRI-O-5-monoglucuronide formation incubated for 5 mins prior to UDPGA addition measured after 90 mins by Eadie-Hoftsee plot analysis
[6] = substrate: O=c1c(-c2ccc(O)cc2)coc2cc3c(c(O)c12)OCO3; assay: Activity of human recombinant UGT1A1 assessed as IRI-O-4'-monoglucuronide formation incubated for 5 mins prior to UDPGA addition measured after 90 mins by Eadie-Hoftsee plot analysis
[7] = substrate: O=c1c(-c2ccc(O)cc2)coc2cc3c(c(O)c12)OCO3; assay: Activity of human recombinant UGT1A1 assessed as IRI-O-5-monoglucuronide formation incubated for 5 mins prior to UDPGA addition measured after 90 mins by Eadie-Hoftsee plot analysis
[8] = substrate: O=c1c(-c2ccc(O)cc2)coc2cc3c(c(O)c12)OCO3; assay: Activity of human recombinant UGT1A9 assessed as IRI-O-5-monoglucuronide formation incubated for 5 mins prior to UDPGA addition measured after 90 mins by Eadie-Hoftsee plot analysis

In the case of `COc1c2c(cc3occ(-c4ccc(O[C@@H]5O[C@H](C(=O)O)[C@@H](O)[C@H](O)[C@H]5O)cc4)c(=O)c13)OCO2`, the Drug metabolism [1] is reported as “metabolite_detected”.

B1: UDP-glucuronosyltransferase 1A8 (Homo sapiens) (protein)
chain: MARTGWTSPIPLCVSLLLTCGFAEAGKLLVVPMDGSHWFTMQSVVEKLILRGHEVVVVMPEVSWQLGKSLNCTVKTYSTSYTLEDLDREFMDFADAQWKAQVRSLFSLFLSSSNGFFNLFFSHCRSLFNDRKLVEYLKESSFDAVFLDPFDACGLIVAKYFSLPSVVFARGIACHYLEEGAQCPAPLSYVPRILLGFSDAMTFKERVRNHIMHLEEHLFCQYFSKNALEIASEILQTPVTAYDLYSHTSIWLLRTDFVLDYPKPVMPNMIFIGGINCHQGKPLPMEFEAYINASGEHGIVVFSLGSMVSEIPEKKAMAIADALGKIPQTVLWRYTGTRPSNLANNTILVKWLPQNDLLGHPMTRAFITHAGSHGVYESICNGVPMVMMPLFGDQMDNAKRMETKGAGVTLNVLEMTSEDLENALKAVINDKSYKENIMRLSSLHKDRPVEPLDLAVFWVEFVMRHKGAPHLRPAAHDLTWYQYHSLDVIGFLLAVVLTVAFITFKCCAYGYRKCLGKKGRVKKAHKSKTH
B1 gave a Km [2] of 70.9 µM, a Vmax [2] of 0.001 µmol/min/mg and a Km [3] of 87.5 µM. It also gave a Vmax [3] of 0.00054 µmol/min/mg.

B2: UDP-glucuronosyltransferase 1A10 (Homo sapiens) (protein)
chain: MARAGWTSPVPLCVCLLLTCGFAEAGKLLVVPMDGSHWFTMQSVVEKLILRGHEVVVVMPEVSWQLERSLNCTVKTYSTSYTLEDQNREFMVFAHAQWKAQAQSIFSLLMSSSSGFLDLFFSHCRSLFNDRKLVEYLKESSFDAVFLDPFDTCGLIVAKYFSLPSVVFTRGIFCHHLEEGAQCPAPLSYVPNDLLGFSDAMTFKERVWNHIVHLEDHLFCQYLFRNALEIASEILQTPVTAYDLYSHTSIWLLRTDFVLDYPKPVMPNMIFIGGINCHQGKPLPMEFEAYINASGEHGIVVFSLGSMVSEIPEKKAMAIADALGKIPQTVLWRYTGTRPSNLANNTILVKWLPQNDLLGHPMTRAFITHAGSHGVYESICNGVPMVMMPLFGDQMDNAKRMETKGAGVTLNVLEMTSEDLENALKAVINDKSYKENIMRLSSLHKDRPVEPLDLAVFWVEFVMRHKGAPHLRPAAHDLTWYQYHSLDVIGFLLAVVLTVAFITFKCCAYGYRKCLGKKGRVKKAHKSKTH
B2 was tested, and the Km [4] was 10.3 µM and the Vmax [4] was 0.00103 µmol/min/mg.

B3: UDP-glucuronosyltransferase 1A7 (Homo sapiens) (protein)
chain: MARAGWTGLLPLYVCLLLTCGFAKAGKLLVVPMDGSHWFTMQSVVEKLILRGHEVVVVMPEVSWQLGRSLNCTVKTYSTSYTLEDQDREFMVFADARWTAPLRSAFSLLTSSSNGIFDLFFSNCRSLFNDRKLVEYLKESCFDAVFLDPFDACGLIVAKYFSLPSVVFARGIFCHYLEEGAQCPAPLSYVPRLLLGFSDAMTFKERVWNHIMHLEEHLFCPYFFKNVLEIASEILQTPVTAYDLYSHTSIWLLRTDFVLEYPKPVMPNMIFIGGINCHQGKPVPMEFEAYINASGEHGIVVFSLGSMVSEIPEKKAMAIADALGKIPQTVLWRYTGTRPSNLANNTILVKWLPQNDLLGHPMTRAFITHAGSHGVYESICNGVPMVMMPLFGDQMDNAKRMETKGAGVTLNVLEMTSEDLENALKAVINDKSYKENIMRLSSLHKDRPVEPLDLAVFWVEFVMRHKGAPHLRPAAHDLTWYQYHSLDVIGFLLAVVLTVAFITFKCCAYGYRKCLGKKGRVKKAHKSKTH
Work on B3 yielded a Km [5] of 9.4 µM and a Vmax [5] of 4e-05 µmol/min/mg.

B4: UDP-glucuronosyltransferase 1A1 (Homo sapiens) (protein)
chain: MAVESQGGRPLVLGLLLCVLGPVVSHAGKILLIPVDGSHWLSMLGAIQQLQQRGHEIVVLAPDASLYIRDGAFYTLKTYPVPFQREDVKESFVSLGHNVFENDSFLQRVIKTYKKIKKDSAMLLSGCSHLLHNKELMASLAESSFDVMLTDPFLPCSPIVAQYLSLPTVFFLHALPCSLEFEATQCPNPFSYVPRPLSSHSDHMTFLQRVKNMLIAFSQNFLCDVVYSPYATLASEFLQREVTVQDLLSSASVWLFRSDFVKDYPRPIMPNMVFVGGINCLHQNPLSQEFEAYINASGEHGIVVFSLGSMVSEIPEKKAMAIADALGKIPQTVLWRYTGTRPSNLANNTILVKWLPQNDLLGHPMTRAFITHAGSHGVYESICNGVPMVMMPLFGDQMDNAKRMETKGAGVTLNVLEMTSEDLENALKAVINDKSYKENIMRLSSLHKDRPVEPLDLAVFWVEFVMRHKGAPHLRPAAHDLTWYQYHSLDVIGFLLAVVLTVAFITFKCCAYGYRKCLGKKGRVKKAHKSKTH
B4 was tested, and the Km [6] was 32.9 µM, the Vmax [6] was 0.00014 µmol/min/mg and the Km [7] was 24.6 µM. For the same molecule, the Vmax [7] was 0.00067 µmol/min/mg.

B5: UDP-glucuronosyltransferase 1A9 (Homo sapiens) (protein)
chain: MACTGWTSPLPLCVCLLLTCGFAEAGKLLVVPMDGSHWFTMRSVVEKLILRGHEVVVVMPEVSWQLGRSLNCTVKTYSTSYTLEDLDREFKAFAHAQWKAQVRSIYSLLMGSYNDIFDLFFSNCRSLFKDKKLVEYLKESSFDAVFLDPFDNCGLIVAKYFSLPSVVFARGILCHYLEEGAQCPAPLSYVPRILLGFSDAMTFKERVRNHIMHLEEHLLCHRFFKNALEIASEILQTPVTEYDLYSHTSIWLLRTDFVLDYPKPVMPNMIFIGGINCHQGKPLPMEFEAYINASGEHGIVVFSLGSMVSEIPEKKAMAIADALGKIPQTVLWRYTGTRPSNLANNTILVKWLPQNDLLGHPMTRAFITHAGSHGVYESICNGVPMVMMPLFGDQMDNAKRMETKGAGVTLNVLEMTSEDLENALKAVINDKSYKENIMRLSSLHKDRPVEPLDLAVFWVEFVMRHKGAPHLRPAAHDLTWYQYHSLDVIGFLLAVVLTVAFITFKCCAYGYRKCLGKKGRVKKAHKSKTH
In the case of B5, the Km [8] is reported as 5 µM and the Vmax [8] is reported as 0.00027 µmol/min/mg.
